The text below walks through data of patent US20100189695A1, “IRAK-1 AS REGULATOR OF DISEASES AND DISORDERS” (priority 2008, published 2010).

B1: D340N: mutated IRAK-1 molecule, mutation present in human patients with cardiovascular diseases (protein, UniProt P51617 1-712, looked up, variant D340N)
Interleukin-1 …: MAGGPGPGEPAAPGAQHFLYEVPPWVMCRFYKVMDALEPADWCQFAALIVRDQTELRLCERSGQRTASVLWPWINRNARVADLVHILTHLQLLRARDIITAWHPPAPLPSPGTTAPRPSSIPAPAEAEAWSPRKLPSSASTFLSPAFPGSQTHSGPELGLVPSPASLWPPPPSPAPSSTKPGPESSVSLLQGARPFPFCWPLCEISRGTHNFSEELKIGEGGFGCVYRAVMRNTVYAVKRLKENADLEWTAVKQSFLTEVEQLSRFRHPNIVDFAGYCAQNGFYCLVYGFLPNGSLEDRLHCQTQACPPLSWPQRLDILLGTARAIQFLHQDSPSLIHGNIKSSNVLLDERLTPKLGDFGLARFSRFAGSSPSQSSMVARTQTVRGTLAYLPEEYIKTGRLAVDTDTFSFGVVVLETLAGQRAVKTHGARTKYLKDLVEEEAEEAGVALRSTQSTLQAGLAADAWAAPIAMQIYKKHLDPRPGPCPPELGLGLGQLACCCLHRRAKRRPPMTQVYERLEKLQAVVAGVPGHSEAASCIPPSPQENSYVSSTGRAHSGAAPWQPLAAPSGASAQAAEQLQRGPNQPVESDESLGGLSAALRSWHLTPSCPLDPAPLREAGCPQGDTAGESSWGSGPGSRPTAVEGLALGSSASSSSEPPQIIINPARQKMVQKLALYEDGALDSLQLLSSSSLPGLGLEQDRQGPEESDEFQS
B2: C203S: mutated IRAK-1 molecule, mutation present in human patients with cardiovascular diseases (protein, UniProt P51617 1-712, looked up, variant C203S)
Interleukin-1 …: MAGGPGPGEPAAPGAQHFLYEVPPWVMCRFYKVMDALEPADWCQFAALIVRDQTELRLCERSGQRTASVLWPWINRNARVADLVHILTHLQLLRARDIITAWHPPAPLPSPGTTAPRPSSIPAPAEAEAWSPRKLPSSASTFLSPAFPGSQTHSGPELGLVPSPASLWPPPPSPAPSSTKPGPESSVSLLQGARPFPFCWPLSEISRGTHNFSEELKIGEGGFGCVYRAVMRNTVYAVKRLKENADLEWTAVKQSFLTEVEQLSRFRHPNIVDFAGYCAQNGFYCLVYGFLPNGSLEDRLHCQTQACPPLSWPQRLDILLGTARAIQFLHQDSPSLIHGDIKSSNVLLDERLTPKLGDFGLARFSRFAGSSPSQSSMVARTQTVRGTLAYLPEEYIKTGRLAVDTDTFSFGVVVLETLAGQRAVKTHGARTKYLKDLVEEEAEEAGVALRSTQSTLQAGLAADAWAAPIAMQIYKKHLDPRPGPCPPELGLGLGQLACCCLHRRAKRRPPMTQVYERLEKLQAVVAGVPGHSEAASCIPPSPQENSYVSSTGRAHSGAAPWQPLAAPSGASAQAAEQLQRGPNQPVESDESLGGLSAALRSWHLTPSCPLDPAPLREAGCPQGDTAGESSWGSGPGSRPTAVEGLALGSSASSSSEPPQIIINPARQKMVQKLALYEDGALDSLQLLSSSSLPGLGLEQDRQGPEESDEFQS
B3: T113I: mutated IRAK-1 molecule, mutation present in human patients with cardiovascular diseases (protein, UniProt P51617 1-712, looked up, variant T113I)
Interleukin-1 …: MAGGPGPGEPAAPGAQHFLYEVPPWVMCRFYKVMDALEPADWCQFAALIVRDQTELRLCERSGQRTASVLWPWINRNARVADLVHILTHLQLLRARDIITAWHPPAPLPSPGITAPRPSSIPAPAEAEAWSPRKLPSSASTFLSPAFPGSQTHSGPELGLVPSPASLWPPPPSPAPSSTKPGPESSVSLLQGARPFPFCWPLCEISRGTHNFSEELKIGEGGFGCVYRAVMRNTVYAVKRLKENADLEWTAVKQSFLTEVEQLSRFRHPNIVDFAGYCAQNGFYCLVYGFLPNGSLEDRLHCQTQACPPLSWPQRLDILLGTARAIQFLHQDSPSLIHGDIKSSNVLLDERLTPKLGDFGLARFSRFAGSSPSQSSMVARTQTVRGTLAYLPEEYIKTGRLAVDTDTFSFGVVVLETLAGQRAVKTHGARTKYLKDLVEEEAEEAGVALRSTQSTLQAGLAADAWAAPIAMQIYKKHLDPRPGPCPPELGLGLGQLACCCLHRRAKRRPPMTQVYERLEKLQAVVAGVPGHSEAASCIPPSPQENSYVSSTGRAHSGAAPWQPLAAPSGASAQAAEQLQRGPNQPVESDESLGGLSAALRSWHLTPSCPLDPAPLREAGCPQGDTAGESSWGSGPGSRPTAVEGLALGSSASSSSEPPQIIINPARQKMVQKLALYEDGALDSLQLLSSSSLPGLGLEQDRQGPEESDEFQS
B4: IRAK-1-ΔC: truncated version of IRAK-1 with deletion of the C terminal region (amino acids 548 to 712 are deleted) (protein, UniProt P51617 1-547, looked up, fragment)
chain: MAGGPGPGEPAAPGAQHFLYEVPPWVMCRFYKVMDALEPADWCQFAALIVRDQTELRLCERSGQRTASVLWPWINRNARVADLVHILTHLQLLRARDIITAWHPPAPLPSPGTTAPRPSSIPAPAEAEAWSPRKLPSSASTFLSPAFPGSQTHSGPELGLVPSPASLWPPPPSPAPSSTKPGPESSVSLLQGARPFPFCWPLCEISRGTHNFSEELKIGEGGFGCVYRAVMRNTVYAVKRLKENADLEWTAVKQSFLTEVEQLSRFRHPNIVDFAGYCAQNGFYCLVYGFLPNGSLEDRLHCQTQACPPLSWPQRLDILLGTARAIQFLHQDSPSLIHGDIKSSNVLLDERLTPKLGDFGLARFSRFAGSSPSQSSMVARTQTVRGTLAYLPEEYIKTGRLAVDTDTFSFGVVVLETLAGQRAVKTHGARTKYLKDLVEEEAEEAGVALRSTQSTLQAGLAADAWAAPIAMQIYKKHLDPRPGPCPPELGLGLGQLACCCLHRRAKRRPPMTQVYERLEKLQAVVAGVPGHSEAASCIPPSPQENSY
B5: IRAK-M: a homologue of IRAK-1 (protein)
chain: MAGNCGARGALSAHTLLFDLPPALLGELCAVLDSCDGALGWRGLAERLSSSWLDVRHIEKYVDQGKSGTRELLWSWAQKNKTIGDLLQVLQEMGHRRAIHLITNYGAVLSPSEKSYQEGGFPNILFKETANVTVDNVLIPEHNEKGILLKSSISFQNIIEGTRNFHKDFLIGEGEIFEVYRVEIQNLTYAVKLFKQEKKMQCKKHWKRFLSELEVLLLFHHPNILELAAYFTETEKFCLIYPYMRNGTLFDRLQCVGDTAPLPWHIRIGILIGISKAIHYLHNVQPCSVICGSISSANILLDDQFQPKLTDFAMAHFRSHLEHQSCTINMTSSSSKHLWYMPEEYIRQGKLSIKTDVYSFGIVIMEVLTGCRVVLDDPKHIQLRDLLRELMEKRGLDSCLSFLDKKVPPCPRNFSAKLFCLAGRCAATRAKLRPSMDEVLNTLESTQASLYFAEDPPTSLKSFRCPSPLFLENVPSIPVEDDESQNNNLLPSDEGLRIDRMTQKTPFECSQSEVMFLSLDKKPESKRNEEACNMPSSSCEESWFPKYIVPSQDLRPYKVNIDPSSEAPGHSCRSRPVESSCSSKFSWDEYEQYKKE
B6: IRAK-1b: isoform of IRAK-1 that does not possess kinase activity (protein)
chain: MAGGPGPGEPAAPGAQHFLYEVPPWVMCRFYKVMDALEPADWCQFAALIVRDQTELRLCERSGQRTASVLWPWINRNARVADLVHILTHLQLLRARDIITAWHPPAPLPSPGTTAPRPSSIPAPAEAEAWSPRKLPSSASTFLSPAFPGSQTHSGPELGLVPSPASLWPPPPSPAPSSTKPGPESSVSLLQGARPFPFCWPLCEISRGTHNFSEELKIGEGGFGCVYRAVMRNTVYAVKRLKENADLEWTAVKQSFLTEVEQLSRFRHPNIVDFAGYCAQNGFYCLVYGFLPNGSLEDRLHCQTQACPPLSWPQRLDILLGTARAIQFLHQDSPSLIHGDIKSSNVLLDERLTPKLGDFGLARFSRFAGSSPSQSSMVARTQTVRGTLAYLPEEYIKTGRLAVDTDTFSFGVVVLETLAGQRAVKTHGARTKYLKDLVEEEAEEAGVALRSTQSTLQAGLAADAWAAPIAMQIYKKHLDPRPGPCPPELGLGLGQLACCCLHRRAKRRPPMTQENSYVSSTGRAHSGAAPWQPLAAPSGASAQAAEQLQRGPNQPVESDESLGGLSAALRSWHLTPSCPLDPAPLREAGCPQGDTAGESSWGSGPGSRPTAVEGLALGSSASSSSEPPQIIINPARQKMVQKLALYEDGALDSLQLLSSSSLPGLGLEQDRQGPEESDEFQS

The test has as its system NFAT. Description: NFAT responsive element luciferase reporter assay in transfected Hela cells. The class given is cell-based, human. Conditions: co-transfection of expression plasmid with NFAT reporter. An excerpt:
NFAT family transcription factors play critical roles in the pathogenesis of cardiovascular diseases, including hypertension and atherosclerosis. […] First, human Hela cells were trasfected with either empty vector plasmid or wild type IRAK-1 expression plasmid together with a NFAT responsive element-containing luciferase reporter plasmid. […] Subsequently, plasmids that express mutated IRAK-1 molecules (D340N, C203S, T113I, mutations which are present in human patients with cardiovascular diseases) have been generated.
Further experiments were performed to ask whether the C-terminal domain of IRAK-1 is involved in facilitating its suppressive regulatory function toward NFAT activity. […] Statistical significance was calculated using a t-Test for two-samples assuming unequal variances and p-values are as indicated.
In order to determine the mechanism for IRAK-1 involvement, transcription factor reporter assays were performed. In this set of experiments, NFAT reporter activity was determined in the presence of IRAK-1 or IRAK-M, a homologue of IRAK-1 (FIG. 10).
As to B1, the “suppression of NFAT reporter activity” value is on record as “failed to suppress NFAT activity”.

Turning to B2, the “suppression of NFAT reporter activity” value was “failed to suppress NFAT activity”. To B3 belongs “failed to suppress NFAT activity”.

B4: the “suppression of NFAT reporter activity” value is “failed to suppress NFAT activity”.

For B5, the “suppression of NFAT reporter activity” value was “did not show suppression of NFAT”. With B6 the entry was “cannot fulfill the inhibitory function on NFAT”.
